The text below walks through data of patent publication US20090081226A1.

Assay [1] addresses membrane-bound HLA-E (human). In words: cell-based or functional assay.
Assay [2] has as its target membrane-bound HLA-E (human). In words: flow cytometry on short term cultured melanocytes. On the technique in general: Flow cytometry measures light scatter and fluorescence of single cells or particles in a stream.
The target of assay [3] is membrane-bound HLA-E (human). The assay can be described thus: flow cytometry on a panel of 22 melanoma cell lines.
Assay [4] has as its target CD94/NKG2A receptor (human) (UniProt Q13241). In words: cell-based or functional assay.
UniProt Q13241, sequence (Q13241 other isoform, or with tags, fused parts or gaps, chain 1 of 2): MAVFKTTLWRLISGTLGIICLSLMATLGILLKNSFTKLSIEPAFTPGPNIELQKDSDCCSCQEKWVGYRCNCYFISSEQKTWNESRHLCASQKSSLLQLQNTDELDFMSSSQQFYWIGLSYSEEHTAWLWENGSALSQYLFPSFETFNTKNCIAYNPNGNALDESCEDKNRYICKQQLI
UniProt Q13241, sequence (chain, as listed by the source, chain 2 of 2): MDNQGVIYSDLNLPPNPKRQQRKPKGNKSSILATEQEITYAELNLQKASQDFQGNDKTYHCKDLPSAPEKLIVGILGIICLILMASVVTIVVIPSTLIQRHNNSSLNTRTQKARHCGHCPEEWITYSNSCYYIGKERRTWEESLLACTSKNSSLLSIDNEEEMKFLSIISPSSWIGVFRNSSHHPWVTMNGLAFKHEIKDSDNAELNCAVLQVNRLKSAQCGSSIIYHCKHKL

In the case of anti-HLA-E mAb MEM-E/06 (antibody), the NK-mediated cytotoxicity, specific lysis (51Cr release) of IFNγ-activated HAEC (% specific lysis) in assay [1] was 34.9. Consider anti-HLA-E mAb MEM-E/07 (antibody), for which the results for the ratio fluorescence intensity (RFI) (ratio (MFI test / MFI negative control)) in assay [2] and in assay [3] were 3 to 7 and 1 to 4, respectively. In assay [4], “membrane-bound HLA-E (from UniProt P61769 21-119) (peptide-MHC)” yielded an NK-mediated cytotoxicity, specific lysis (51Cr release) of ECs (% specific lysis) of 2.6.
